{"source": "patent US20260069559A1", "about": "“COMBINATIONS OF RXFP1 MODULATORS AND SGLT2 INHIBITORS” (ASTRAZENECA AB, priority 2022, published 2026)", "origin": "cited, not measured here", "details": "after receiving serelaxin intravenously; fraction of patients"}
{"substance": "serelaxin", "values": [{"measurement": "patients who experienced a significant blood pressure drop (>40 mm Hg)", "value": "approximately one third"}]}
